According to the supplement of paper PMC9170038:

Test system: K4 kissing-loop RNA reporter
Test: apparent KD of K4 kissing-loop reporter; higher = weaker reporter binding
Settings: Eterna round: R107
Experimental: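 RNA-MaP round R107: designed RNA switches with theophylline, tryptophan, arginine or FMN aptamers are transcribed on-chip within common flanks. They are titrated with a labelled K4 kissing-loop RNA reporter in RNA-MaP buffer (100 mM Tris pH 7.5, 80 mM KCl, 4 mM MgCl2), without ligand or with the indicated ligand. Median apparent KD per design.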

[1] = input ligand: theophylline 20 uM
[2] = input ligand: tryptophan 2.4 mM
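Also: bound reporter read as fluorescence of individual clusters on recovered sequencing chips by microscopy, with normalized cluster intensities fitted with a binding model.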

Sequence | apparent KD of K4 kissing-loop reporter (input ligand: FMN 200 uM) [nM] | apparent KD of K4 kissing-loop reporter (input ligand: arginine 13.2 mM) [nM] | apparent KD of K4 kissing-loop reporter (input ligand: none) [nM] | apparent KD of K4 kissing-loop reporter [1] [nM] | apparent KD of K4 kissing-loop reporter [2] [nM]
AAAGCAGUAUACUGCAAGACCUAUACUGAUACCAGAGUCAAUUGACUCCCUUGGCAGCGGAUCGAGUGAUGUUCGUAAGGUCAAA [AK4.1 SS Theophylline A] | 498 | 555 | 528 | 734 | 617
AAAUAAUGCAGUCACCCAGUGAUGUUGGAAGGAGCGUGCGAAAGCACAGGUAGGUCGCCAAUAAUGAUAAAGUUCAGUGGCUUUA [JR_Nu_ExcArginiA_Sub030] | 766 | 682 | 454 | 464 | 659
AAAUUGUUUAGAGGAUAUUCUUUAUUCGACAUAACCUUCUAUAAGGUGCAGUGAUGUUGCAAUAUAGGAGAAGGUUGAGUGAUAA [Exclusion FMN B Gf 15] | 135 | 118 | 136 | 121 | 113
AAAUUUUCAAGUGAUACCAGACAUUUCUAUUACAUUAAUAUAGCUAAGUGAUGUUUAGCAGUCCCUUGGCAGCACUAUUUAAUUA [JR_SSTheophyB_Sub014] | 201 | 265 | 253 | 355 | 216
AACCGUGUGGCGGCCGCCACUAGUCUCCAGUGAUGUUGGAGAGAUCACGUAAGUGAUCUCCGACAUAGGACCGGGCCAUAUGGAA [Same State - Tryptophan B (Freestyle 24)] | 509 | 152 | 295 | 351 | 661
AACGCAAGUUGUCUGGUAGACAUUUCAGAUACCAGACAUAGUGAUGUCCCUUGGCAGCUGAACAUCCAGUGAUGUUGGAUACGUU [Theo A SS t11a] | 444 | 394 | 513 | 507 | 400
AACGUAGCUACUGAUACCAGACUUUUUCUUGUAUAUUAGUCAAGUGAUGUUUGACUUUUAGUCCCUUGGCAGCAGUUGCUACGAA [JR_Nu_SSTheophyB_Sub028] | 89.2 | 84.3 | 91.4 | 82.6 | 98.3
AACUCUCAGGCACGCGAGUGAUGUUCGCGCCGAGGACCGGUACGGCCGCCACUCGGGCCUGAGAGAGGUUAUCAAAGAUAGCCAA [whbob_SS_tryp_A] | 306 | 105 | 137 | 204 | 250
AACUUAAUUUAUAAGCAGUGAUGUUGCUUACGAGGACCGGUACGGCCGCCACUCGAUCGCAUUUAUGUCUUCAAUUAAUUCAUUA [JR_ExcTryptoA_Sub016] | 178 | 196 | 197 | 237 | 195
AAGAGGUAGGCGGCCGCCACUAGUUGUGAACACAUACAAGCCAGUGAUGUUGGUAUGGUGGGCGGUAGGACCGGGCCUACCUGAA [Exclusion - Tryptophan B (Freestyle 17)] | 230 | 263 | 257 | 250 | 243
AAGCAGUCACUCGAACCCAUCGAAGAUGGUCGAGGACCGGUACGGCCGCCACUCGGAGUGAUGUUCCGCAGACUGCAAAAUAAAA | 376 | 464 | 426 | 511 | 312
AAGGCAAUUCGAGGAUAUCACAUACACUCCUUGAAUCAAGGAGUGAUGUUCCUUGAAGUGUAUGCAUGAGAAGGCGAAUUGCCUU [#05 K4 FMN B Same State] | 113 | 86.5 | 95.4 | 99.3 | 95.3
AAGGCCACGAGAAGGAGCGUGUUGUGGAGUGAUGUUCCAUUGUAGACCUAAGGUCUACAAGCACAGGUAGGUCGCUCGUGGUCAA [Omei KL Arginine B SS A v5] | 131 | 120 | 132 | 112 | 119
AAGGGCUAGGCGGCCGCCACUGGUCGUGAACACAUACGAGCCAGUGAUGUUGGUAUUGUGUGCGGCAGGACCGGGCCUAGCCGAA [Exclusion - Tryptophan B (Freestyle 24)] | 343 | 338 | 391 | 409 | 462
AAGUAGCUCUCGGCCGCCACUCCUCAGUGAUGUUGAGAUAUUAAGAGCCAAUUGGCUCAUAUAAAGAGGACCGGGAGAGCUACAA [AK4 SS Tryptophan B] | 248 | 276 | 357 | 282 | 128
AAGUCAUAUAGAAGGAGCGUGUUUUUUAAUUUGUUUUCAUGAUCGAGUGAUGUUCGAUAUACACAGGUAGGUCGCUGUAUGAUAA [hbob_SS_Arginine_B_2t143] | 128 | 146 | 130 | 177 | 114

Sequence | apparent KD of K4 kissing-loop reporter (input ligand: FMN 200 uM) [nM] | apparent KD of K4 kissing-loop reporter (input ligand: arginine 13.2 mM) [nM] | apparent KD of K4 kissing-loop reporter (input ligand: none) [nM] | apparent KD of K4 kissing-loop reporter [1] [nM] | apparent KD of K4 kissing-loop reporter [2] [nM]
AAGUGAUGUUGUAGUGAUGUUGUGAUGUUGCAGGAUAUAUAGUGAUGUAGAAGGGUAUGUGCAGUUUUCAUAUUUGAGUGUUGAU [mkkhmullin] | 85.2 | 37.6 | 67.1 | 56.5 | 64.2
AAUAAGGAGUGAUGUUCCAAGUGAUGUUAACGAGGACCGGUACGGCCGCCACUCGAUACGGCCGGAAAGUAAGAUAAACUAAAAU [Same State - Tryptophan A (Freestyle 2)] | 61 | 42.8 | 52.3 | 45.5 | 47.2
AAUACAGUACAACCGAGUGGAACACAAAUACGAGGACCGGUACGGCCGCCACUCGUGCAGAAUUUCAGUGAUGUUGAAAUACUGC [Exclusion Tryptophan A GF 6] | 165 | 125 | 122 | 162 | 149
AAUAUCUAGUAUAUAUUUUAUAAAACAGAUACCAGUGAUUAUAUACACCCUUGGCAGCUGGACGAGUGAUGUUCGUAUAUAUUAA [JR_SSTheophyA_Sub008] | 118 | 188 | 147 | 244 | 89
AAUGUACAGGGAAGGAGCGUAGUCCAGUGAUGUUGGAAUUAAAUUCCUGCGAUGUUGGUUAUACAGGUAGGUCGCCCUAAAGUGC [KL-XARG-B22] | 367 | 351 | 436 | 497 | 344
AAUUCAGCUAGUGAUGUUAGCGUAGAGUGCAAGGAUAUCCCUGUCAGGAGAAGGUGCGUAGAACGUUUGCCAUCAGAUUGUCCCA [theeternabot_exclusion_KL_FMN_A_48] | 176 | 97.2 | 118 | 104 | 109
AAUUCAGUGAUGUUGGAAGGCAAGCGGGAUACCAGCGGAGAAUAACGCCCUUGGCAGCCCAUAUAUCCCAAAUAGAUAAUAGUUC [Same State - Theophylline A (Freestyle 4)] | 345 | 220 | 279 | 327 | 337
AAUUGAGUGACGGCCGCCACUAGAGUGAUUUUUUUGUUUGAGUGAUGUUUUGAUGUUUGAUGUUGUAGGACCGGGUUGAGUGAUG [vvrvmullin] | 377 | 348 | 386 | 428 | 291
AAUUUAUAUUUGUUCUUCAAAUGUUCAGAAGGAGCGUGAAUUAUCACAGGUAGGUCGCUGGGCUAGUGAUGUUGGCUAUAUACUA [whbob_Ex_Arginine_A_2t126] | 168 | 195 | 195 | 211 | 137
AAUUUAUUAACUGAUACCAGACUUAAUAAAUUUUAAAUCACUAGUGAUGUUAGUGAAUAUGUCCCUUGGCAGCAGUAUUUAUUAA [JR_SSTheophyB_Sub023] | 132 | 134 | 125 | 121 | 115
ACACAGAGUUGCCGAGUGAUGUUCGGCUUACGAGGACCGGUACGGCCGCCACUCGUUACUCUGUGUUUUGGACACCAAGGCGUCG [Tionzaanon] | 651 | 449 | 543 | 505 | 201
ACACUUUACGUAGGAUAUGCGACGAGUGAUGUUCGUCAGGCGGCCUUAGAUUAAACAAGCCGCCUAGCAGAAGGACGGGCAGUGU [Qumatiri] | 133 | 155 | 201 | 154 | 159
ACCUACCAUUAGUGAUGUUAAUGGACGGAAGGAGCGCAGAUAUCUGCAGGUAGGUCGCCGAAGGCUAGACAUUGUCUAGCCAUUU [AK1.3 SS Arginine A] | 192 | 161 | 217 | 155 | 180
ACCUACGAUCACGAAAGUGAUUGUAGGAUCUAGGAUAUGCUGAAGAGCAGAAGGAGAGUGAUGUUCUCAUCUCACGAAAGUGAGA [whbob_Ex_FMNA__2th190] | 437 | 206 | 217 | 245 | 221
ACCUAGUACGUAGGAUAUCGAACAUCAUUUAGUGAGAUCGAGUGAUGUUCGAUCACGUCUUCAGUUCGAGAAGGACGUACUAGGA [FMN B SS t4] | 335 | 273 | 302 | 477 | 351
ACGAAGGAUGGAAGGAGCGCUCGUCAGUCCUGCGAGUGAUGUUCGUGGGUAAAUAUUCGCGAGCAGGUAGGUCGCCAUCUUGAAC [Veticeen] | 146 | 104 | 137 | 121 | 134
